Measurements reported in publication PMC4740795, “Mechanistic insights into the recognition of 5-methylcytosine oxidation derivatives by the SUVH5 SRA domain”.

What was measured:
SUVH5 SRA domain [1] = target: T1, SUVH5 SRA domain (Arabidopsis, UniProt O82175 362-528); test: ITC; N = 0.52; ITC: 40 mM Tris-HCl pH 7.5, 50 mM NaCl, 2 mM b-mercaptoethanol, 25 C; FP: 20 mM Tris-HCl pH 7.5, 50 mM NaCl, 1 mM DTT, 20 C; EMSA: 25 mM Tris-HCl pH 7.5, 5% glycerol, 60 mM NaCl, 10 mM MgCl2, 0.4 mg/mL BSA, 2 mM DTT; details: protein: recombinant; tags: His6-SUMO, cleaved with Ulp1; chain copies: 2; self-complementary, 2 copies of strand
T1 sequence: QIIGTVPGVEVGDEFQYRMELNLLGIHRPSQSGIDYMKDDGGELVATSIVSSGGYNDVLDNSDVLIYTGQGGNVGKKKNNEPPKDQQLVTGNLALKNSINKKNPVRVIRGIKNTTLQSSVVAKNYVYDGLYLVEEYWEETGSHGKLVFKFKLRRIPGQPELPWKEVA

SUVH5 SRA domain [2] = target: T1, SUVH5 SRA domain; test: X-ray crystal structure (2.6 A); 2:1 complex, dual 5hmC flip-out; ITC: 40 mM Tris-HCl pH 7.5, 50 mM NaCl, 2 mM b-mercaptoethanol, 25 C; FP: 20 mM Tris-HCl pH 7.5, 50 mM NaCl, 1 mM DTT, 20 C; EMSA: 25 mM Tris-HCl pH 7.5, 5% glycerol, 60 mM NaCl, 10 mM MgCl2, 0.4 mg/mL BSA, 2 mM DTT; details: protein: recombinant; tags: His6-SUMO, cleaved with Ulp1; chain copies: 2; self-complementary, 2 copies of strand; 3' T overhang
SUVH5 SRA domain [3] = target: T1, SUVH5 SRA domain; test: ITC; N fixed to 0.5; endothermic; 3-fold higher concentrations; ITC: 40 mM Tris-HCl pH 7.5, 50 mM NaCl, 2 mM b-mercaptoethanol, 25 C; FP: 20 mM Tris-HCl pH 7.5, 50 mM NaCl, 1 mM DTT, 20 C; EMSA: 25 mM Tris-HCl pH 7.5, 5% glycerol, 60 mM NaCl, 10 mM MgCl2, 0.4 mg/mL BSA, 2 mM DTT; details: protein: recombinant; tags: His6-SUMO, cleaved with Ulp1; chain copies: 2; self-complementary, 2 copies of strand
UHRF1 SRA domain = target: T2, UHRF1 SRA domain (mammalian? (species ), UniProt Q96T88-2 427-630); test: fluorescence polarization; 20 C; ITC: 40 mM Tris-HCl pH 7.5, 50 mM NaCl, 2 mM b-mercaptoethanol, 25 C; FP: 20 mM Tris-HCl pH 7.5, 50 mM NaCl, 1 mM DTT, 20 C; EMSA: 25 mM Tris-HCl pH 7.5, 5% glycerol, 60 mM NaCl, 10 mM MgCl2, 0.4 mg/mL BSA, 2 mM DTT; details: protein: recombinant; tags: His6-SUMO, cleaved with Ulp1; label: 5'-6FAM
T2 sequence: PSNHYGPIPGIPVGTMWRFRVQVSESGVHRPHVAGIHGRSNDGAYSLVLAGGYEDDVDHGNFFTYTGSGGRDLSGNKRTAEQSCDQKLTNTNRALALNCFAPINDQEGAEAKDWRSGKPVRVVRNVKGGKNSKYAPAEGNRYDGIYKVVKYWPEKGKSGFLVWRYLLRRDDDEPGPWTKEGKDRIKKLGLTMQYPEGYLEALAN

SUVH5 SRA domain [4] = target: T1, SUVH5 SRA domain; test: ITC; ITC: 40 mM Tris-HCl pH 7.5, 50 mM NaCl, 2 mM b-mercaptoethanol, 25 C; FP: 20 mM Tris-HCl pH 7.5, 50 mM NaCl, 1 mM DTT, 20 C; EMSA: 25 mM Tris-HCl pH 7.5, 5% glycerol, 60 mM NaCl, 10 mM MgCl2, 0.4 mg/mL BSA, 2 mM DTT; details: protein: recombinant; tags: His6-SUMO, cleaved with Ulp1; chain copies: 2
SUVH5 SRA domain [5] = target: T1, SUVH5 SRA domain; test: ITC; N fixed to 0.5; 3-fold higher concentrations; ITC: 40 mM Tris-HCl pH 7.5, 50 mM NaCl, 2 mM b-mercaptoethanol, 25 C; FP: 20 mM Tris-HCl pH 7.5, 50 mM NaCl, 1 mM DTT, 20 C; EMSA: 25 mM Tris-HCl pH 7.5, 5% glycerol, 60 mM NaCl, 10 mM MgCl2, 0.4 mg/mL BSA, 2 mM DTT; details: protein: recombinant; tags: His6-SUMO, cleaved with Ulp1; chain copies: 2; self-complementary, 2 copies of strand
SUVH5 SRA domain [6] = target: T1, SUVH5 SRA domain; test: ITC; N = 0.48; ITC: 40 mM Tris-HCl pH 7.5, 50 mM NaCl, 2 mM b-mercaptoethanol, 25 C; FP: 20 mM Tris-HCl pH 7.5, 50 mM NaCl, 1 mM DTT, 20 C; EMSA: 25 mM Tris-HCl pH 7.5, 5% glycerol, 60 mM NaCl, 10 mM MgCl2, 0.4 mg/mL BSA, 2 mM DTT; details: protein: recombinant; tags: His6-SUMO, cleaved with Ulp1; chain copies: 2; self-complementary, 2 copies of strand

B1: fully-5hmCG duplex (ITC) (dsDNA)
DNA 1: CAGCTCGAGCTG
DNA 2: CAGCTCGAGCTG
modifications: 5hmC at central CG, both strands
SUVH5 SRA domain [1]
  Kd: 1.5 ± 0.12 µM

B2: fully-5hmCG 10-mer with 3'-T overhang (crystal) (dsDNA)
DNA 1: ACTACGTAGTT
DNA 2: ACTACGTAGTT
modifications: 5hmC at position 5, both strands
SUVH5 SRA domain [2]
  binding result: binds

B3: fully-5fCG duplex (ITC) (dsDNA)
DNA 1: CAGCTCGAGCTG
DNA 2: CAGCTCGAGCTG
modifications: 5fC at central CG, both strands
SUVH5 SRA domain [3]
  Kd: ~125 µM

B4: hemi-5mCG 12-mer (dsDNA)
DNA 1: CCATGCGCTGAC
DNA 2: GTCAGCGCATGG
modifications: X = 5mC, one strand
UHRF1 SRA domain
  Kd: 0.35 µM

B5: hemi-5hmCG duplex (ITC) (dsDNA)
DNA 1: CCATGCGCTGAC
DNA 2: GTCAGCGCATGG
modifications: 5hmC at central CG, one strand
SUVH5 SRA domain [4]
  Kd: 7.6 ± 0.6 µM

B6: fully-5caCG duplex (ITC) (dsDNA)
DNA 1: CAGCTCGAGCTG
DNA 2: CAGCTCGAGCTG
modifications: 5caC at central CG, both strands
SUVH5 SRA domain [5]
  Kd: ~150 µM

B7: fully-5mCG duplex (ITC) (dsDNA)
DNA 1: CAGCTCGAGCTG
DNA 2: CAGCTCGAGCTG
modifications: 5mC at central CG, both strands
SUVH5 SRA domain [6]
  Kd: 1.2 ± 0.09 µM
